In the supplement of paper PMC9170038:

Test system: MS2 coat protein
Assay: apparent KD of MS2 coat protein; designed switch direction (-1 OFF switch, 1 ON switch): -1; higher = weaker reporter binding
In short: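 The apparent KD reported per design is the median over clusters of curve fits to normalised cluster fluorescence. The RNA switches were transcribed on Illumina chips by stalled E. coli RNA polymerase. SNAP-549-labelled MS2 coat protein was titrated from 0.7 or 1.5 nM, doubling up to 3 µM, in Tris-HCl pH 7.5 buffer containing KCl, MgCl2, BSA, DTT, tRNA and Tween-20, with no input, 200 uM small-molecule ligand, or an oligonucleotide input.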

[1] = Eterna round: R95, input ligand: microRNA oligo, concentration not stated
[2] = Eterna round: R95, input ligand: FMN 200 uM
[3] = Eterna round: R95, input ligand: none
[4] = input ligand: microRNA oligo, concentration not stated

| Sequence | apparent KD of MS2 coat protein [1] [nM] | apparent KD of MS2 coat protein (input ligand: FMN 200 uM) [nM] | apparent KD of MS2 coat protein (input ligand: none) [nM] | apparent KD of MS2 coat protein [2] [nM] | apparent KD of MS2 coat protein [3] [nM] | apparent KD of MS2 coat protein [4] [nM] |
| --- | --- | --- | --- | --- | --- | --- |
| CAUGUGUAAGGAUAUGACAAUGGUAUCGAAAGAUACCAUUGUCAGAAGGUACAUGAGGAUCACCCAUGUGGAUC [Ex4-3: 18] (puzzle: Exclusion 4) | 199 | – | – | – | – | – |
| CGCUGGUGAGGAUAUGGGUGUUUUUACAUGAGGAUCACCCAUGUGGAGUAGCAUGUGGGUCCAGAAGGCGCGAGUG [-24.2, -22.5 kcal, 21% A] (Eterna round: R97, puzzle: Exclusion 5) | – | 398 | 309 | – | – | – |
| UUUAAACAUGAGGAUCACCCAUGUUAGGAUAUACGCAUGCAGACACGCACGGAUGCAAGUAGAAGGAACCAUGC [Design #6] (Eterna round: R97, puzzle: Exclusion 1) | – | 27.9 | 31.3 | – | – | – |
| AAUUAGUGAGGAUAUACUAACAGUGGUAGUAGAUAGUGGAUGUAGAAGGCACAUGAGGAUCACCCAUGUUAUAA [EX4 #52] (Eterna round: R97, puzzle: Exclusion 4) | – | 26 | 43.7 | – | – | – |
| AAAACUCGAGUUAGGAUAUUGAGUGCUAAAAUCACCAAGAAGGAACAUGAGGAUCACCCAUGUAACGAAGGUGA [BmEX4 A.10] (Eterna round: R97, puzzle: Brourd's mod of Exclusion 4) | – | 19.8 | 16 | – | – | – |
| GCCAGAGCAGGAUAUUCAAUAAUUCACAUGAGGAUCACCCAUGUCGAGCGAAAGCUCGAGGGAGAAGGGCUCUGGC [Fiskers Ex 5 - 6] (puzzle: Exclusion 5) | 34.8 | – | – | 14.3 | 39.4 | – |
| AUUGUUUGAUACCUCUAAUACAUGAGGAUCACCCAUGUUAUCGAGGAUAUGUAGAAGAGAGGAGAACAGAAGGCGAAGUAAGAG [JR_ExcNG3_Sub095] (Eterna round: R96, puzzle: Exclusion NG 3) | – | 14.6 | 17.7 | – | – | 14.5 |
| CUAGGGCACAUUUAAACGCCCUAACAUGAGGAUCACCCAUGUCAGGAUAUGUAGGCAAAGACCCUACAGAAGGGACAUGUCCUA [Recebe] (Eterna round: R96, puzzle: Exclusion NG 3) | – | 303 | 52.9 | – | – | 42.9 |
| CUUUAGUGAGGAUAUCAGUAGUAGAACAAUAGUACUACUACUGAGAAGGCACAUGAGGAUCACCCAUGUUCCUC [Fiskers Ex 4 Super stable 44 mod 8] (puzzle: Exclusion 4) | 34.5 | – | – | – | – | – |
| UGCAUGCUAGGAUAUACGAAACAUUAGGGUUCUUCGUAUGAACAUGAGGAUCACCCAUGUAGAAGGAGCGUGCU [Mod9 of JL-ex2-2.15 mat747 mod] (puzzle: Exclusion 2) | 31.1 | – | – | – | – | – |
| GAAAAGGUAGGAUAUACGAAAAAAAAAGGUAGAAAAAAAACACAUGAGGAUCACCCAUGUAGAAGGACCAAAAG [salish99_ex2_r3_070] (puzzle: Exclusion 2) | 51.5 | – | – | 37.4 | 30.6 | – |
| GAUUAGACUAAGGAUAUUACGAGCUCUGUGCCGUGAGAAGGUAGCACAUGAGGAUCACCCAUGUGACCAUCAUG [Eternabot (L2) Solution 81] (Eterna round: R97, puzzle: Exclusion 6) | – | 180 | 58.6 | – | – | – |
| CUGGUCCGAGGAUAUAUUAAGUGAUACAUGAGGAUCACCCAUGUUAUUUAAUGGAUGUAAAUAGAAGGCGGACUAG [Mat - Exclusion 5 - JL mod - D70] (puzzle: Exclusion 5) | 42.6 | – | – | 51 | 44.6 | – |
| CCAUAUAGGAGAGGAUAUACGCACCACUAACUAGUAGAAGGCUCACAUGAGGAUCACCCAUGUGAUUUCUCAAUAUUAUACAUC [Prohibition 73 - Jieux - Exclusion NG 1] (Eterna round: R96, puzzle: Exclusion NG 1) | – | 50.3 | 34.8 | – | – | 25.6 |
| AAUUCACAUGAGGAUCACCCAUGUCAGGAUAUGGUUUCACGGGUUUCGGUGCGUGAGGCCAGAAGGGACAGCUA (puzzle: Exclusion 1) | 51.5 | – | – | – | – | – |
| ACAAGCAUUUAUAUUUUAAAAUUUUAUCGUCUUAUAAUUACAUGAGGAUCACCCAUGUAUAAAGGGUGAAUAAUAAU [JR_Sensorv2_tov2_Sub550] (Eterna round: R96, puzzle: Sensor v2, turn-off variant 2) | – | 93.9 | 91.8 | – | – | 203 |
| AGCUGUGGCCGAGGAUAUCAAGAACCAUGGAAAACCAUGGAACCUUGACAUGAGGAUCACCCAUGUGAGAAGGCGGUCUCAGCA [Eli eng2 - 026] (Eterna round: R96, puzzle: Exclusion NG 2) | – | – | – | – | – | 11.1 |
| CAAAAGCUAGGAUAUCGCAAACAAGACAUGAGGAUCACCCAUGUGUCCAUGGCCGACCUCCGAGAAGGAGCAAUAU [Dieded] (puzzle: Exclusion 5) | 27.9 | – | – | 32.5 | 30.5 | – |
| CAGUACUGAGGAUAUACAUGAGGAUCACCCAUGUGCACCAGCUAGGAUACUAGCAAAAGUAGAAGGCAGUACUG [Mat - Exclusion 3 - Eli Mod - D19] (Eterna round: R97, puzzle: Exclusion 3) | – | 118 | 16.1 | – | – | – |
| GUAGAGUCAGGAUAUACGAGAUCGAAAGAUCAAAGAUCCUUACAUGAGGAUCACCCAUGUAGAAGGGACUCUAC [Eli x2 4.14] (Eterna round: R97, puzzle: Exclusion 2) | – | 574 | 37.1 | – | – | – |
| UAAAGUAUAUAGGAUAUCUAGCUGGAAACAGCUAGAGAAGGAUGUACAUGAGGAUCACCCAUGUAGAUCUCAAA [Ex6/15-A2] (Eterna round: R97, puzzle: Exclusion 6) | – | 19 | 16.2 | – | – | – |
| AUUGUUUAUGUAGGAUAUGCCUGGCGUGCCUUUGCAGAAGGACAUGAGGAUCACCCAUGUAACAUGAGGCUCACCCAUGUCGCC [salish99_ExNG1_r04_114] (Eterna round: R96, puzzle: Exclusion NG 1) | – | 162 | 170 | – | – | 123 |
| AAUAACAGAGGAUAUACUAUUUUAUGUGUUUGUUGUUUUGAACAUGAGGAUCACCCAUGUAGAAGGCUGAAUAA [JMF 26] (puzzle: Exclusion 2) | 22.1 | – | – | – | – | – |
| CGAUGUCUUCGGACAUCGAACAUGAGGAUCACCCAUGUAUAGAGCAGAUCUUCAUGCAAGCUUUUUGCUCGUCUUAU [Sensor v3 - turn-off variant 1 - 47] (puzzle: Sensor v3, turn-off variant 1) | 14.6 | – | – | 84.7 | 90.4 | – |
| GUCCUCUUGACAUGAGGAUCACCCAUGUAUUAUUUGUUAACUGAGGAUAUACUCUUAUUUUUUAUGUAGAAGGCAGAUUUGUUC [JR_ExcNG3_Sub022] (Eterna round: R96, puzzle: Exclusion NG 3) | – | – | – | – | – | 32.1 |
| AGUACUAACACGAAAGUGUUAGUACAAUAAGCUUGUGAAACAUGAGGAUCACCCAUGUCCUCAUAAGCUCGUCUUAU [Mat - Sensor v2 -ver2- JL mod - D68] (Eterna round: R96, puzzle: Sensor v2, turn-off variant 2) | – | 15.4 | 17.6 | – | – | 468 |
